# Measurements reported in the DeepSol protein solubility set.
# Experiment: soluble on expression in E. coli; label from the status in PepcDB or PDB records
row,Sequence,soluble on expression in E. coli
1,SMSNANPFFSQSLAERDASVRGAILKELERQQSQVELIASENIVSRAVLDAQGSVLTNKYAEGYPGKRYYGGCEFADEVEALAIERVKRLFNAGHANVQPHSGAQANGAVMLALAKPGDTVLGMSLDAGGHLTHGAKPALSGKWFNALQYGVSRDTMLIDYDQVEALAQQHKPSLIIAGFSAYPRKLDFARFRAIADSVGAKLMVDMAHIAGVIAAGRHANPVEHAHVVTSTTHKTLRGPRGGFVLTNDEEIAKKINSAVFPGLQGGPLMHVIAGKAVAFGEALTDDFKTYIDRVLANAQALGDVLKAGGVDLVTGGTDNHLLLVDLRPKGLKGAQVEQALERAGITCNKNGIPFDPEKPTITSGIRLGTPAGTTRGFGAAEFREVGRLILEVFEALRTNPEGDHATEQRVRREIFALCERFPIY,soluble
2,SNAMSKQLLALNIDGALLRSNGKIHQATKDAIEYVKKKGIYVTLVTNRHFRSAQKIAKSLKLDAKLITHSGAYIAEKIDAPFFEKRISDDHTFNIVQVLESYQCNIRLLHEKYSIGNKKKVNSNLLGKALIHPSDPIFYPVQFVESLSDLLMDEPVSAPVIEVYTEHDIQHDITETITKAFPAVDVIRVNDEKLNIVPKGVSKEAGLALVASELGLSMDDVVAIGHQYDDLPMIELAGLGVAMGNAVPEIKRKADWVTRSNDEQGVAYMMKEYFRMQQRKGFLDKFHMKR,soluble
3,MKYVLDTSAIISRNINLLDGDLLFPSSVIGEIRKGKLKYMLDALFPMIRIVDPDQYYVRSVEDAAHKTGDLMNLSGTDIEVIAVAMQYGATIVTDDYSIQNVASALKIAFMNANIKSISKQISWVYRCTGCKKIFHEPVKVCDICGHNVKRHYDKKRSAVKKILEHHHHHH,not soluble
4,MKPANLIHPSVIMSKKYNKMGEGCIICASNIITVNVTLGDHIIVNLDCTIGHDVVINDYVTIYPSVNVSGNCNIGECVELGTGTQVIQGNNIGDRTIVGAGSVVIRNIEGDKVAVGVPTKVIKLEHHHHHH,not soluble
5,MGSDKIHHHHHHMINEQRLLNTFLELVQIDSETGNESTIQPILKEKFIALGLDVKEDEAAKHPKLGANNLVCTMNSTIEEGEVPKLYLTSHMDTVVPAINVKPIVKDDGYIYSDGTTILGADDKAGLAAMLEVLQVIKEQQIPHGQIQFVITVGEESGLIGAKELNSELLDADFGYAIDASADVGTTVVGAPTQMLISAKIIGKTAHASTPKEGVSAINIAAKAISRMKLGQVDEITTANIGKFHGGSATNIVADEVILEAEARSHDPERIKTQVKHMTDVFETTASELGGKAEVTVEQSYPGFKINDNEAVVKIAQESARNLGLSANTIISGGGSDGSIINTFGIPSVILGVGYEKIHTTNERMPIKSLNLLASQVLEIIKIVARQSK,not soluble
6,MGKQRECLVIVEGYDPYVVKVSHDATSYSDYKTGRELPFTIIRMNGFSDSEGVYCCIASDKSMEDHTDEARALLKAYKVKPL,not soluble
7,MSLNLVSKLEETASEKPDSIACRFKDHMMTYQELNEYIQRFADGLQEAGMEKGDHLALLLGNSPDFIIAFFGALKAGIVVVPINPLYTPTEIGYMLTNGDVKAIVGVSQLLPLYESMHESLPKVELVILCQTGEAEPEAADPEVRMKMTTFAKILRPTSAAKQNQEPVPDDTAVILYTSGTTGKPKGAMLTHQNLYSNANDVAGYLGMDERDNVVCALPMFHVFCLTVCMNAPLMSGATVLIEPQFSPASVFKLVKQQQATIFAGVPTMYNYLFQHENGKKDDFSSIRLCISGGASMPVALLTAFEEKFGVTILEGYGLSEASPVTCFNPFDRGRKPGSIGTSILHVENKVVDPLGRELPAHQVGELIVKGPNVMKGYYKMPMETEHALKDGWLYTGDLARRDEDGYFYIVDRKKDMIIVGGYNVYPREVEEVLYSHPDVKEAVVIGVPDPQSGEAVKGYVVPKRSGVTEEDIMQHCEKHLAKYKRPAAITFLDDIPKNATGKMLRRALRDILPQGHHHHHH,soluble
8,MGSDKIHHHHHHMSHVSYAEPPAQGWDIHCHTVFSDGTETPRTLVEQARKLGLHGVAIADHDTTAGWDEATEASEEIGLPLLLGTEITAVDEDVSVHMLAFQYDPSNEHISSMFANTRAARLRRTKRMVERLSQDFPITWDDVLAQVKEGERTTIGRPHIADALVAAGVYETRSDAFADAVSAKSKYYIPTPSPSTHEVIAAVKGAGGVVVAAHAGDPQRNRRLLSDEQLDAMIADGLDGLEVWHRGNPPEQRERLLTIAARHDLLVTGGSDWHGKGKPNGLGENLTDDDTVREILCRGVDLIGRVGSSHAA,not soluble
9,MAVSAYFHIPFCAHICHYCDFNKVFAAGQPIDDYLRAMDKEMAWTAAEFGSQLKTLFIGGGTPTVLEPAQLGCLLASIHRHFQFDPQTAEFTVEANPDGLTKEKLAILRDAGVNRLSLGVQTFDDQLLQTIGRTHRRGDVIRAVALAREVGFQNISIDVMYGLPGQTLEQFTADLEAAFSLHVPHLSAYSLILEPRTIFYNEWRKGRLRLPGEEMEAEMYEAAMEQMAAAGYRQYEISNYALPGFESRHNLTYWNNEEYYGIGAGAHSYIDGVRRANIGPIRHYISAIERGQWPHRDVRRLTTREQMEEEMFLGLRKTEGVSKACFRQKFGRDLHDIFGAAIRREIENGRLEETETHIRLTKRGKLLGNEVFAAFLGEM,not soluble
10,SNAIAVGSERSADGKGMLLANPHFPWNGAMRFYQMHLTIPGRLDVMGASLPGLPVVNIGFSRHLAWTHTVDTSSHFTLYRLALDPKDPRRYLVDGRSLPLEEKSVAIEVRGADGKLSRVEHKVYQSIYGPLVVWPGKLDWNRSEAYALRDANLENTRVLQQWYSINQASDVADLRRRVEALQGIPWVNTLAADEQGNALYMNQSVVPYLKPELIPACAIPQLVAEGLPALQGQDSRCAWSRDPAAAQAGITPAAQLPVLLRRDFVQNSNDSAWLTNPASPLQGFSPLVSQEKPIGPRARYALSRLQGKQPLEAKTLEEMVTANHVFSADQVLPDLLRLCRDNQGEKSLARACAALAQWDRGANLDSGSGFVYFQRFMQRFAELDGAWKEPFDAQRPLDTPQGIALDRPQVATQVRQALADAAAEVEKSGIPDGARWGDLQVSTRGQERIAIPGGDGHFGVYNAIQSVRKGDHLEVVGGTSYIQLVTFPEEGPKARGLLAFSQSSDPRSPHYRDQTELFSRQQWQTLPFSDRQIDADPQLQRLSIRE,soluble
11,MKLVPDAFHPGYWGPLLSAHMPRTAYLPVSESFISALQRDSLNEADAERLQSDFSELIQGLSHAMDYLRTDHSTSEGFCPKLNGKLPYDAAWILGRHAPCCYTWNEAMMVLRASSRIHEPTRTSWQGSFCLVVQRWEQIHPANEFRCFISSCRVIAICQRHPDTPYPFLARERDRLVNAMVSFYETHVRPLHPAYAECILDCYLDDSQSVRTLGIDAWSDDALLLFEVSEMEALRAQAAAAFPGQHSDPDGHRQSEAPGEDATGATVSFRSVAQGFAAVPWGWSEKLPLELGDDFLRARIQRNASD,not soluble
12,MKCSKCQAEAIYFAKYNGLYLCREHFNDMIEKRVKSEIRNQVDLKKPMVRISVAISGGKDSSVTLYLLHKILSKRRNVELTAFTVDEGISGYRPAGLESAIKLTKMLGVDHSIIRFQDSFGMTLDSIVGADASRIPCSYCGPLRRKLINEMAERQNADYVALGLNLDDYSQSILMNVAKGDYDRLLRMSPQKEAKDGLVRRIAPLRSVLEKEVVLYAVINGIPFDSSWCPYYSRAQRNIFREVVNTLSEYNPSTKFSILKFFERARSDVQRNDKALGRCRICGAPTENDVCSACAAMESLRNERKASESELHAR,not soluble
13,MRKIHFTDKYLLSPYHPVTVLVAGAGGTGSQVITSLARMSVALQALGHPGLHLTAFDPDTVTEANIGRQLFSETELGLNKATALVTRVNRFFGYAWEARECRYPIITKEGDKSVPLANIIITCTDNTRSRLDLWRFLKKYREYKKNDEKAPIYWMDFGNAQTTGQVLIGNIRSKISQPASSEYLPMPRMNVITEEVSYSTIREEDSGPSCSLAEALRKQDLFINSMLAQIGCDILWCMFREGRTFYRGAYLNLDTLRVNPIPV,not soluble
14,MQYVKIKDSIVEQIEAGMLSPRQKLPAERKLAESFDTTRVTLREALSLLEAEGRIYREDRRGWFISPEPLRYDPTQTLNFPNMAKAQNRVPKTELIAAKGTLANKQSARLLQLQPFSDVFRVDRVRYLEDRPVVYVTNYIRPEIFPNLLSFDLTNSLTDIYREHFGVVYQKTRYRISTSTLLGEVAQALRATSGTPAMVVERTNYNQHGELIDCDIEYWRHDAISIESVAELNQ,not soluble
15,MVTVAVPKERAPGERRVALVPEVVARLVKGGARVRVERGAGEGAYHPDEAYQEAGAEVVERGELLKGAHLLFTVQPPPEDLIQALEPGAIVVGFVQPHKNLELVRALQAKKATVIAMELIPRITRAQSMDALSSQATVAGYLAAIHAARLSPRFFPMLTTAAGTIRPAKVMVMGVGVAGLMAIATAKRLGAQVFAYDVRKAALEQALSLGAKPIELPISAEGEGGYARELTEEEKRIQHEALRDHVAGMDVLITTAQVPGRRAPILLTEDMVERLKPGTVVVDLAAESGGNCVLTKPGEVVEVRGVRVYGPLNLPSELSVHASEMYAKNLYNLSSLLIEKGAFAPKWEDEIVRAALLMKEGEVLHGPTKALLGGA,soluble
16,MGHHHHHHSHMFTMLCINGTTPRPLPVPSPFGCMIFFFFKNPWKQCLLQGWLGARPIHLLGYLPLSLLWCPFPLPCARCSVVYISSPRHGAHAPRDMILSLVLAHGALYKELGGRGRKWEPS,not soluble
17,MGSDKIHHHHHHMTGSNKVIISCAVTGSIHTPTMTPYLPITSTEIANAATGAIDAGAAIVHLHARHPDDGRPDQTVGAFRPFIEHIKAHTDGIINLTTGGAPTMSVEERLQPALHLKPEIASLNMGSMNFGLFPMLNRYKEFKHEWERHYLEGTRDLVFRNTFKDIEYVLSSCTGNDTRFEFECYDTAHLYNLAHFLDRKLVTPPLFVQTVFGILGGIGSHADDVAHMKRTADRLFGSNYVWSVLGAGRAQMPVASIAAAQGGNVRVGIEDSIWNGPGQLAKANSDQVRRVRQILEGMGLAIATPDEARTLLHLKGRNNVAF,not soluble
18,MSLGHPVDTFRRENKALRESAARLQKAMNGVLETADDGDASARLLEWRQALNELQDVDKHYQRKEHLLSTCLERHGITGPSKVMWGKDDQIRELLKDTSVALRQSDTSVAELKVLAATTGAAAAGAVHEMIYKEEQILLPICLERFTADEWAEIWASSPRYGWCLVEPRQGYKPFTSEAAGRASVDGGVSLPTGALALEQLIAIFSTLPVDLTFVDANDRVAFFSEGPSRVFARSRTIVGRMVQNCHPPRSVDVVERILSDFREGRQNVAEFWLQFVGRFVHIRYFAVRSEDGRYLGTLEVTQDVGPIRALEGERRLLEYAEPSEGHHHHHH,not soluble
19,MGSDKIHHHHHHMTSALSEAGGYPPEGQGAYFLCDIFDAMPKNDLASMEHPLFSLSTRPDRRILNYEHNGAEITVTPSVKGLATIHDKDILIFCVSQLMAALNAGRQVSRVLHLTAHDLLVACNRETSGDAYRRLRESFERLAGTRITTNITTGGQEITTGFGLIESWEIVRKARGGRMVSVAVTLSDWLYRAVLSKSVLTLSRDYFRLRKPLERRIYELARKHCGRQDSWQISVETLLKKSGSASPRRVFRKMVRDMIESQPLPDYEMAELEGDIIRFSQKAAVVDVPPPVISEAARDEARRLMPGVDVHALEADWRATWARTGAPRLRKPDAAFVGWVRKRMND,not soluble
